Laboratory results: US20240132578A1

What was measured:
Assay in all cases: cell-based or functional assay
[1] = target: HIV-1 envelope glycoprotein (Env) of isolate 94UG103 (HIV-1)
[2] = target: HIV-1 Env of isolate MG RM-D-016 (subtype D) (HIV-1)
[3] = target: HIV-1 Env of isolate MG RM-D-019 (subtype D) (HIV-1)
[4] = target: HIV-1 Env of pseudovirus 98CN009 (HIV-1)
[5] = target: HIV-1 Env of isolate MGRM-Chronic-B-010 (subtype B), on pseudovirus (HIV-1)
[6] = target: HIV-1 Env of isolate MGRM-A-013 (pseudovirus) (HIV-1)
[7] = target: HIV-1 Env of isolate MGRM-A-010 (pseudovirus) (HIV-1)
[8] = target: HIV-1 envelope glycoprotein (Env) of isolate 92WR009 (HIV-1)
[9] = target: HIV-1 Env of isolate MGRM-Chronic-B-008 (subtype B), on pseudovirus (HIV-1)
[10] = target: HIV-1 NL43 envelope protein (Env) on pseudotyped virus (HIV-1 strain NL43)
[11] = target: HIV-1 Env of isolate MG RM-D-002 (subtype D) (HIV-1)
[12] = target: HIV-1 envelope glycoprotein (Env) of isolate 93WR029 (HIV-1)
[13] = target: HIV-1 envelope glycoprotein (Env) of isolate 92RW008 (HIV-1)
[14] = target: HIV-1 Env of isolate APV-6 (Clade B) (HIV-1)
[15] = target: HIV-1 Env of isolate 92UG024 (subtype D) (HIV-1)
[16] = target: HIV-1 Env of isolate MGRM-C-026 (clade C pseudovirus) (HIV-1)

Substance	IC50 [1]	IC50 (µg/mL), pseudovirus neutralization [2]	IC50 (µg/mL), pseudovirus neutralization [3]	IC50, pseudovirus neutralization [4]	IC50, single-round pseudovirus neutralization [5]	IC50 (µg/mL), pseudovirus neutralization [6]	IC50 (µg/mL), pseudovirus neutralization [7]	IC50 [8]	IC50, single-round pseudovirus neutralization [9]	IC50, Neutralizing Antibody Assay, Virus/Ab Incubation 1 hour [10]	IC50, Neutralizing Antibody Assay, Virus/Ab Incubation 18 hour [10]	IC50 (µg/mL), pseudovirus neutralization [11]	IC50 [12]	IC50 [13]	IC90 (neutralization of pseudovirus) [14]	IC50 (µg/mL), pseudovirus neutralization [15]	IC50 (µg/mL), single-round pseudovirus neutralization [16]
1496_C09 (PG9) (TCN-109) (antibody)	0.34 µg/mL	0.098 µg/mL	0.038 µg/mL	0.371 µg/mL	0.004 µg/mL	0.122 µg/mL	0.022 µg/mL	0.05 µg/mL	8.78 µg/mL	0.294 µg/mL	38 µg/mL	0.021 µg/mL	0.69 µg/mL	0.006 µg/mL	1.96 µg/mL	1.86 µg/mL	0.06 µg/mL
PGV04 (antibody)	0.202 µg/mL	0.201 µg/mL	0.35 µg/mL	0.0125 µg/mL	0.744 µg/mL	0.086 µg/mL	0.205 µg/mL	0.108 µg/mL	0.166 µg/mL	–	–	0.322 µg/mL	0.54 µg/mL	0.014 µg/mL	–	0.201 µg/mL	0.303 µg/mL
